Results on 13 molecules are retold here after patent EP4545563A1 (Foreseen Technology (Beijing) Co., Ltd., dated 2024).

Positions count from the first letter of the chain named.

For one assay, the target named is T1, ITGA2-His (human, UniProt P17301 30-1132, limits assumed).
T1 construct: also called ITGA2 protein; not shown: His tag
T1 sequence (looked up): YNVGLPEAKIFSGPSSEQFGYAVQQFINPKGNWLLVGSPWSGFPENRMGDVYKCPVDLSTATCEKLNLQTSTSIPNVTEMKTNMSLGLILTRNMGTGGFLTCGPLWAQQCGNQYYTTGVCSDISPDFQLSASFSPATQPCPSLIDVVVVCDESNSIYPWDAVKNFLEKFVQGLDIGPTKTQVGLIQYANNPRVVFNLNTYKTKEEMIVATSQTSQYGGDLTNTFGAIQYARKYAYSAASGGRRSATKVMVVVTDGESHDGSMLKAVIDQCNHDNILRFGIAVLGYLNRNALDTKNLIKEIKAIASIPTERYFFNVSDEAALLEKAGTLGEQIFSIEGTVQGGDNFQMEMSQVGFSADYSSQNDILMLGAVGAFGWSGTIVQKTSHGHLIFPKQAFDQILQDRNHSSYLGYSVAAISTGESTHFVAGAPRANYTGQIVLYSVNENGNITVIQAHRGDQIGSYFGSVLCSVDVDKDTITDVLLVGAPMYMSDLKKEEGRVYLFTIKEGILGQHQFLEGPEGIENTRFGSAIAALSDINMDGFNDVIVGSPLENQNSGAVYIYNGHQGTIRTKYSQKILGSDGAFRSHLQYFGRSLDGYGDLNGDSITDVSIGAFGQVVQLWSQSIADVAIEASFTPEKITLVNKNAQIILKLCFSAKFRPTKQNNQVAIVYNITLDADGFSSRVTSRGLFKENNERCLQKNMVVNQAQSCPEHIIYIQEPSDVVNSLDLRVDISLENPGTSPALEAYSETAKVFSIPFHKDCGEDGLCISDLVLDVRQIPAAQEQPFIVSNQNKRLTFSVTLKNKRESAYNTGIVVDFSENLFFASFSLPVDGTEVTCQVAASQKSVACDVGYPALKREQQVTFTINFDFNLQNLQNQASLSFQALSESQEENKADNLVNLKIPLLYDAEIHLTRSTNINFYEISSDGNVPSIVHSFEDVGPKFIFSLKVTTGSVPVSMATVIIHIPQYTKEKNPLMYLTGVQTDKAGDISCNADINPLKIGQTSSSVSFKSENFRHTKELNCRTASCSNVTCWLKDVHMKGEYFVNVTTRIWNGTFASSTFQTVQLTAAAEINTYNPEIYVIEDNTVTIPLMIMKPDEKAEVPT
Kind of assay: ELISA, plate coated with 2 ug/mL ITGA2-His, anti-human IgG-Fc-HRP detection. Background: In an ELISA, binding on a coated surface is turned into a signal by an enzyme label.

In assay [1] the target is T2, ITGA2 protein on the surface of human tumor cells (HuCCT1, A431) (human, UniProt P17301 30-1181).
T2 construct: whole, on cells; Endogenously expressed on the cell lines; the cell line of each entry is named under assay or readout; also called Integrin alpha-2; ITGA2-positive HuCCT1 cells
T2 sequence (looked up): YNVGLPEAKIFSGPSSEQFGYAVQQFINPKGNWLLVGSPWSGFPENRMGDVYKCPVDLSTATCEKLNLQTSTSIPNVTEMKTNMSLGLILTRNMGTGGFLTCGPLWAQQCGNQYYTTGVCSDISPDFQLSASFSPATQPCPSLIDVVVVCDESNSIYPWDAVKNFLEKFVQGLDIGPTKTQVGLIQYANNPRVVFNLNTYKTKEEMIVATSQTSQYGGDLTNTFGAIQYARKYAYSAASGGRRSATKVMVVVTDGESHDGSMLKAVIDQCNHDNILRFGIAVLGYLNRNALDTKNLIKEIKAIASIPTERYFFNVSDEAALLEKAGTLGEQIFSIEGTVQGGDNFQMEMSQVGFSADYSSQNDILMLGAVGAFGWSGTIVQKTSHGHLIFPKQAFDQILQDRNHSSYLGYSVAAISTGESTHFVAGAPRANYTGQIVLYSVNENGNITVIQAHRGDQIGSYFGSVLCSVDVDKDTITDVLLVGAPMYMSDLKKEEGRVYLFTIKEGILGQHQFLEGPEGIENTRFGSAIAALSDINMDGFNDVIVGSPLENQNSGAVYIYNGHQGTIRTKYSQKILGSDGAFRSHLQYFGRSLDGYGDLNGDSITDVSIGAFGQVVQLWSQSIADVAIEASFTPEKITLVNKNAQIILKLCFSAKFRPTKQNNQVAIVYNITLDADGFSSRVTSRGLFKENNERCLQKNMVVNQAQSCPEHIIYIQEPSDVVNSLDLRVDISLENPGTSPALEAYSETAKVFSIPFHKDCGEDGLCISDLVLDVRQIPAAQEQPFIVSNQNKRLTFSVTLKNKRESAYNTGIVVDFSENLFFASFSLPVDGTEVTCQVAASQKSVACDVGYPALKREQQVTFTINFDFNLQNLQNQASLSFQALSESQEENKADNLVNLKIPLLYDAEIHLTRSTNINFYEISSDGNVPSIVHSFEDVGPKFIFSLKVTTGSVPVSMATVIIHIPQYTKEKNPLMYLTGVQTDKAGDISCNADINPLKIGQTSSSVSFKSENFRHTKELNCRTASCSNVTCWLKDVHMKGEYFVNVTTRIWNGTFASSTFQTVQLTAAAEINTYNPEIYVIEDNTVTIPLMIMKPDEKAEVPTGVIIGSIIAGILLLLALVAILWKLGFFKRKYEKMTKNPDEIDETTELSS
Put plainly: flow cytometry on HuCCT1 cells, goat anti-human IgG (H+L) secondary antibody. In general terms: A flow cytometer gives signals particle by particle.

Assay [2] deals with T2, ITGA2 protein on the surface of human …. Put plainly: cell-based or functional assay.

B1: Vatelizumab (antibody, V domains shown)
VH: QVQLQESGPGLVKPSETLSLTCTVSGFSLTNYGIHWIRQPPGKGLEWLGVIWARGFTNYNSALMSRLTISKDNSKNQVSLKLSSVTAADTAVYYCARANDGVYYAMDYWGQGTLVTVSS
VL: DFVMTQSPAFLSVTPGEKVTITCSAQSSVNYIHWYQQKPDQAPKKLIYDTSKLASGVPSRFSGSGSGTDYTFTISSLEAEDAATYYCQQWTTNPLTFGQGTKVEIK
With B1, the EC50 worked out at 0.023 nM with ITGA2-His and 0.793 nM in assay [1].

B2: FS002-A36-vc-MMAE (antibody, human IgG1, kappa, V domains shown)
VH: QVQLQESGPGLVKPSQTLSLTCTVSGGSISSGGYYWSWIRQHPGKGLEWIGYIYYSGSTYYNPSLKSRVTISVDTSKNQFSLKLSSVTAADTAVYYCARVRLLGGGFDIWGQGTTVTVSS
VL: EIVLTQSPATLSLSPGERATLSCRASQSVSTYLAWYQQKPGQAPRLLIYDTSIRATGIPARFSGSGSGTDFTLTISSLEPEDFAVYYCQQRSNWPLTFGGGTKVEIKR
modifications: vc-MMAE (mc-vc-PAB-MMAE) linker-payload conjugated after TCEP reduction, DAR 3.8 for the whole antibody; sites not stated
For B2, in assay [2], the “A431 cell killing IC50” value worked out at 0.02 nM and the “HuCC-T1 cell killing IC50” value worked out at 0.08 nM.

B3: Humanized antibody FS002-A5 (antibody, human IgG1, kappa, V domains shown)
VH: QVQLQDSGPGLVKPSQTLSLTCTVSGGSISSGGYYWSWIRQHPGKGLEWIGYIYYSGSTYYNPSLKSRVTISVDTSKNQFSLKLSSVTAADTAVYYCARVPVPLVGAFDIWGQGTMVTVSS
VL: B2 VL with T31S, Y32N, A34G, R45S, D50G, T51A, I53N, S92D, N93T
notes: IgG1 heavy chain, kappa light chain
As to B3, the EC50 with ITGA2-His came to 0.032 nM; in assay [1], 1.27 nM.

B4: Humanized antibody FS002-A36 (antibody, human IgG1, kappa, V domains shown)
VH: B2 VH
VL: B2 VL
notes: as for B3
As for B4, the figures for the EC50 (with ITGA2-His; in assay [1]) were 0.022 nM and 0.793 nM, respectively.

B5: Humanized antibody FS002-A66 (antibody, human IgG1, kappa, V domains shown)
VH: EVQLVESGGGVVQPGRSLRLSCAASGFTFSSYAMHWVRQAPGKGLEWVAVISYDGSNKYYVDSVKGRFTISRDNSKNTLYLQMNSLRAEDTAVYYCARDRITYLDYYYYGMDVWGQGTTVTVSS
VL: B2 VL with T10I, T31E, T51I, I53N, G68E, S92R, N93T, G100P, E105D
notes: as for B3
B5: the EC50 was determined as 0.031 nM with ITGA2-His and 2.35 nM in assay [1].

B6: Humanized antibody FS002-C9 (antibody, human IgG1, kappa, V domains shown)
VH: QVQLLESGPGLVKPSQTVSLTCTVSGVSISRGVYSWSWIRQHPGKGLEWIGFIDYNGRTDYNPSLKSRVTISQDTSKNDFSLKLTSVTAADTAIYYCARGLHAFDIWGQGTMVTVSS
VL: NIQMTQSPPSLSASVGDRVAITCRASQDISNSLAWYQQKSGQPPKLLLYDVSKLERGVPSRFSGSGSRTDYTLTISSLQPEDFATYYCQQYSSDPTFGQGSKLEFKR
notes: as for B3
On to B6, for which the EC50 with ITGA2-His came out at 12.1 nM; in assay [1], 34.6 nM.

B7: FS002-A15-vc-MMAE (antibody, human IgG1, kappa, V domains shown)
VH: RLQLQESGPGLVKPSQTLSLTCTVSGGSISSGGYYWSWIRQHPGKGLEWIGYIYYSGSTYYNPSLKSRVTISVDTSKNQFSLKLSSVTAADTAVYYCARATIYGYFDYWGQGTLVTVSS
VL: EIVLTQSPATLPLSPGERATLSCRASQSVGFYLAWYQQKPGQPPRLLFYDASKRATGIPARFSASGSGTDFTLTISGLEPEDFAVYYCQHRISWPLTFGQGTKVEVKR
modifications: vc-MMAE (mc-vc-PAB-MMAE) linker-payload conjugated after TCEP reduction, DAR 2.9 for the whole antibody; sites not stated
On to B7, for which, in assay [2], the “A431 cell killing IC50” value came to 0.2 nM and the “HuCC-T1 cell killing IC50” value worked out at 0.2 nM.

B8: Humanized antibody FS002-A15 (antibody, human IgG1, kappa, V domains shown)
VH: B7 VH
VL: B7 VL
notes: as for B3
For B8, the EC50 is 0.028 nM with ITGA2-His and 0.927 nM in assay [1].

B9: Humanized antibody FS002-A10 (antibody, human IgG1, kappa, V domains shown)
VH: QVQLQQSGPGLVKPSQTLSLTCAISGDSVSSDSAAWNWIRQSPSRGLEWLGRTYYRSKWYNDYAVSVKSRITINPDTSKNQFSLQLNSVTSDDTAVYYCARGSWAAPWLWGQGTLVTVSS
VL: NIQLTQSPPFLSASVGDRVTITCRASQDISSFLAWYQQKPGKAPNLLIHAATTLQSGVPSRFSGSGSGTEFTLTISSLRPEDFATYYCQQLHTYPITFGQGTRLEIKR
notes: as for B3
With B9, the EC50 was 0.021 nM with ITGA2-His and 1.13 nM in assay [1].

B10: Humanized antibody FS002-B27 (antibody, human IgG1, kappa, V domains shown)
VH: QVQLVQSGAEVKKPGSSVKVSCKASGGTFSSYAISWVRQAPGQGLEWMGRIIPILGIANYAQKFQGRVTITADKSTSTAYMELSSLRSEDTAVYYCARAEGSSWYYFDYWGQGTLVTVSS
VL: NIQLTQSPSSVSASVGDRVTITCRASQGFSRWLAWYQQKPGKAPKLLIYGASSLQSGVPSRFSGSGSGTDFTLTISSLQPEDFATYYCQQANSFPLTFGGGTKLEIKR
notes: as for B3
For B10, the figures for the EC50 (with ITGA2-His; in assay [1]) were 0.571 nM and 2.75 nM, respectively.

B11: Humanized antibody FS002-A72 (antibody, human IgG1, kappa, V domains shown)
VH: QVQLVDSGGGLVQPGGSLRLSCVASGFAFSNYEMNWVRQAPGKGLEWVSYISSSSSYTNYADSVKGRFTISRDNAKNSLYLQMNSLRAEDTAVYYCARAQVRDAFDIWGQGTTVTVSS
VL: IVMTQSPVTLSVSPGDSATLSCRASQSVDKNLAWYQQKTGQAPRLLIYGAATRATGIPARFSGSGSGTEFTLTISSLRSEDFAVYYCQQYRNWPWTFGLGTKVEIKR
notes: as for B3
As to B11, the EC50 with ITGA2-His was found to be 0.259 nM; in assay [1], 17.2 nM.

B12: Humanized antibody FS002-C11 (antibody, human IgG1, kappa, V domains shown)
VH: RLQLQESGPRLVKPSETLSLTCSVSGGSISSRNHYWAWIRQPPGKGLEWIGYIYYSGSTYYNPSLKSRVTISVDTSKNQFSLKLSSVTAADTAVYYCARVGLLLRDFDYWGQGTLVTVSS
VL: DIQMIQSPSSVSASVGDRVTITCRASQGISNSLAWYQHKPGTTPKLLIYAASSLQGGVPSRFSGSSSETDFTLTISSLQPEDFATYYCQQANSFPITFGQGTRLDIKR
notes: as for B3
Turning to B12, the EC50 in the assay with ITGA2-His was found to be 0.035 nM; in assay [1], 0.747 nM.

B13: FS002-A1-vc-MMAE (antibody, V domains shown)
VH: QVQLVQSGAEVKKPGASVKVSCKASGYTFTSYYMHWVRQAPGQGLEWMGIINPSGGSTSYAQKFQGRVTMTRDTSTSTVYMELSSLRSEDTAVYYCARDISGSYQTDAFDIWGQGTMVTVSS
VL: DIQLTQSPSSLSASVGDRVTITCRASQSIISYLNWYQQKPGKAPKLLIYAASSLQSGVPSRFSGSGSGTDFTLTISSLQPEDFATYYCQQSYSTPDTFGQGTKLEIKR
modifications: vc-MMAE (mc-vc-PAB-MMAE) linker-payload conjugated after TCEP reduction, DAR 3.4 for the whole antibody; sites not stated
For B13, in assay [2], the “A431 cell killing IC50” value was 0.14 nM and the “HuCC-T1 cell killing IC50” value is 0.14 nM.

Broadly, the EC50 is the concentration giving half of the maximal effect.
